Like-named read-outs stand apart in the source and are kept apart here. Numbered stars: 1 amine (or outer) side, 2 acyl side, 3 side chain; on linkers, the order of the positions; unused ones are H or OH. Square brackets hold non-standard residues; d marks the D form. Dhp = dehydrophenylalanine, Z isomer, O=C(/C(=C/c1ccccc1)N[*:1])[*:2]; Phe(3R-OH) = O=C([C@@H](N[*:1])[C@H](O[*:3])c1ccccc1)[*:2]; Phe(3-F) = N[C@@H](Cc1cccc(F)c1)C(=O)O; Phe(4-F) = N[C@@H](Cc1ccc(F)cc1)C(=O)O; 1Nal = N[C@@H](Cc1cccc2ccccc12)C(=O)O; 2Nal = N[C@@H](Cc1ccc2ccccc2c1)C(=O)O; Tic = O=C(O)[C@@H]1Cc2ccccc2CN1; Phe(ol) = N[C@H](CO)Cc1ccccc1; dPsa = D-O-acetylphenylserine; Psa = O-acetylphenylserine; dPse = D-phenylserine
Key:
CDK2/cyclin A [1] = biological target: T1, CDK2/cyclin A (UniProt P24941 1-298; P20248 1-432); assay: cell-based or functional assay
CDK2/cyclin A [2] = biological target: T1, CDK2/cyclin A; assay: cell-based or functional assay; remark: listed apart in the source

H-HAKRRLIY-NH2 [H-His-Ala-Lys-Arg-Arg-Leu-Ile-Tyr-NH2]
Relative activity, Kinase Inhibition (CDK2/cyclin A kinase assay, pRb substrate, [ATP] = 100 µM) (CDK2/cyclin A [1]): 0.3 relative to H-His-Ala-Lys-Arg-Arg-Leu-Ile-Phe-NH2 (=1)

B1: H-His-Ala-Lys-Arg-Arg-Leu-Ile-pFPhe-NH2 (peptide)
peptide: H-HAKRRLI[Phe(4-F)]-NH2
SMILES: CC[C@H](C)[C@H](NC(=O)[C@H](CC(C)C)NC(=O)[C@H](CCCNC(=N)N)NC(=O)[C@H](CCCNC(=N)N)NC(=O)[C@H](CCCCN)NC(=O)[C@H](C)NC(=O)[C@@H](N)Cc1c[nH]cn1)C(=O)N[C@@H](Cc1ccc(F)cc1)C(N)=O
Relative activity, Kinase Inhibition (CDK2/cyclin A kinase assay, pRb substrate, [ATP] = 100 µM) (CDK2/cyclin A [1]): 1 relative to H-His-Ala-Lys-Arg-Arg-Leu-Ile-Phe-NH2 (=1)

B2: H-His-Ala-Lys-Arg-Arg-Leu-Ile-mFPhe-NH2 (peptide)
peptide: H-HAKRRLI[Phe(3-F)]-NH2
SMILES: CC[C@H](C)[C@H](NC(=O)[C@H](CC(C)C)NC(=O)[C@H](CCCNC(=N)N)NC(=O)[C@H](CCCNC(=N)N)NC(=O)[C@H](CCCCN)NC(=O)[C@H](C)NC(=O)[C@@H](N)Cc1c[nH]cn1)C(=O)N[C@@H](Cc1cccc(F)c1)C(N)=O
Relative activity, Kinase Inhibition (CDK2/cyclin A kinase assay, pRb substrate, [ATP] = 100 µM) (CDK2/cyclin A [1]): 0.8 relative to H-His-Ala-Lys-Arg-Arg-Leu-Ile-Phe-NH2 (=1)

H-HAKRRLIW-NH2 [H-His-Ala-Lys-Arg-Arg-Leu-Ile-Trp-NH2]
Relative activity, Kinase Inhibition (CDK2/cyclin A kinase assay, pRb substrate, [ATP] = 100 µM) (CDK2/cyclin A [1]): 0.3 relative to H-His-Ala-Lys-Arg-Arg-Leu-Ile-Phe-NH2 (=1)

B3: H-His-Ala-Lys-Arg-Arg-Leu-Ile-1Nap-NH2 (peptide)
peptide: H-HAKRRLI[1Nal]-NH2
SMILES: CC[C@H](C)[C@H](NC(=O)[C@H](CC(C)C)NC(=O)[C@H](CCCNC(=N)N)NC(=O)[C@H](CCCNC(=N)N)NC(=O)[C@H](CCCCN)NC(=O)[C@H](C)NC(=O)[C@@H](N)Cc1c[nH]cn1)C(=O)N[C@@H](Cc1cccc2ccccc12)C(N)=O
Relative activity, Kinase Inhibition (CDK2/cyclin A kinase assay, pRb substrate, [ATP] = 100 µM) (CDK2/cyclin A [1]): 0.2 relative to H-His-Ala-Lys-Arg-Arg-Leu-Ile-Phe-NH2 (=1)

B4: H-His-Ala-Lys-Arg-Arg-Leu-Ile-2Nap-NH2 (peptide)
peptide: H-HAKRRLI[2Nal]-NH2
SMILES: CC[C@H](C)[C@H](NC(=O)[C@H](CC(C)C)NC(=O)[C@H](CCCNC(=N)N)NC(=O)[C@H](CCCNC(=N)N)NC(=O)[C@H](CCCCN)NC(=O)[C@H](C)NC(=O)[C@@H](N)Cc1c[nH]cn1)C(=O)N[C@@H](Cc1ccc2ccccc2c1)C(N)=O
Relative activity, Kinase Inhibition (CDK2/cyclin A kinase assay, pRb substrate, [ATP] = 100 µM) (CDK2/cyclin A [1]): 1.2 relative to H-His-Ala-Lys-Arg-Arg-Leu-Ile-Phe-NH2 (=1)

H-HAKRRLIK-NH2 [H-His-Ala-Lys-Arg-Arg-Leu-Ile-Lys-NH2]
Relative activity, Kinase Inhibition (CDK2/cyclin A kinase assay, pRb substrate, [ATP] = 100 µM) (CDK2/cyclin A [1]): < 0.1 relative to H-His-Ala-Lys-Arg-Arg-Leu-Ile-Phe-NH2 (=1)

B5: H-His-Ala-Lys-Arg-Arg-Leu-Ile-Tic-NH2 (peptide)
peptide: H-HAKRRLI[Tic]-NH2
SMILES: CC[C@H](C)[C@H](NC(=O)[C@H](CC(C)C)NC(=O)[C@H](CCCNC(=N)N)NC(=O)[C@H](CCCNC(=N)N)NC(=O)[C@H](CCCCN)NC(=O)[C@H](C)NC(=O)[C@@H](N)Cc1c[nH]cn1)C(=O)N1Cc2ccccc2C[C@H]1C(N)=O
Relative activity, Kinase Inhibition (CDK2/cyclin A kinase assay, pRb substrate, [ATP] = 100 µM) (CDK2/cyclin A [1]): 0.3 relative to H-His-Ala-Lys-Arg-Arg-Leu-Ile-Phe-NH2 (=1)

H-HAKRRLI[Phe(3R-OH)]-OH [H-His-Ala-Lys-Arg-Arg-Leu-Ile-L-Pse-OH]
Relative activity, Kinase Inhibition (CDK2/cyclin A kinase assay, pRb substrate, [ATP] = 100 µM) (CDK2/cyclin A [2]): < 0.1 relative to H-His-Ala-Lys-Arg-Arg-Leu-Ile-Phe-NH2 (=1)

H-HAKRRLI[dPse]-OH [H-His-Ala-Lys-Arg-Arg-Leu-Ile-D-Pse-OH]
Relative activity, Kinase Inhibition (CDK2/cyclin A kinase assay, pRb substrate, [ATP] = 100 µM) (CDK2/cyclin A [2]): < 0.1 relative to H-His-Ala-Lys-Arg-Arg-Leu-Ile-Phe-NH2 (=1)

H-HSKRRLI[dPse]-OH [H-His-Ser-Lys-Arg-Arg-Leu-Ile-D-Pse-OH]
Relative activity, Kinase Inhibition (CDK2/cyclin A kinase assay, pRb substrate, [ATP] = 100 µM) (CDK2/cyclin A [2]): < 0.1 relative to H-His-Ala-Lys-Arg-Arg-Leu-Ile-Phe-NH2 (=1)

H-HAKRRLI[Psa]-OH [H-His-Ala-Lys-Arg-Arg-Leu-Ile-[L-Psa]-OH]
Relative activity, Kinase Inhibition (CDK2/cyclin A kinase assay, pRb substrate, [ATP] = 100 µM) (CDK2/cyclin A [2]): 22 relative to H-His-Ala-Lys-Arg-Arg-Leu-Ile-Phe-NH2 (=1)

H-HAKRRLI[dPsa]-OH [H-His-Ala-Lys-Arg-Arg-Leu-Ile-D-Psa-OH]
Relative activity, Kinase Inhibition (CDK2/cyclin A kinase assay, pRb substrate, [ATP] = 100 µM) (CDK2/cyclin A [2]): < 0.1 relative to H-His-Ala-Lys-Arg-Arg-Leu-Ile-Phe-NH2 (=1)

H-HSKRRLI[Psa]-OH [H-His-Ser-Lys-Arg-Arg-Leu-Ile-L-Psa-OH]
Relative activity, Kinase Inhibition (CDK2/cyclin A kinase assay, pRb substrate, [ATP] = 100 µM) (CDK2/cyclin A [2]): < 0.1 relative to H-His-Ala-Lys-Arg-Arg-Leu-Ile-Phe-NH2 (=1)

H-HSKRRLI[dPsa]-OH [H-His-Ser-Lys-Arg-Arg-Leu-Ile-D-Psa-OH]
Relative activity, Kinase Inhibition (CDK2/cyclin A kinase assay, pRb substrate, [ATP] = 100 µM) (CDK2/cyclin A [2]): < 0.1 relative to H-His-Ala-Lys-Arg-Arg-Leu-Ile-Phe-NH2 (=1)

B6: H-His-Ala-Lys-Arg-Arg-Leu-Ile-Dhp-OH (peptide)
peptide: H-HAKRRLI[Dhp]-OH
SMILES: CC[C@H](C)[C@H](NC(=O)[C@H](CC(C)C)NC(=O)[C@H](CCCNC(=N)N)NC(=O)[C@H](CCCNC(=N)N)NC(=O)[C@H](CCCCN)NC(=O)[C@H](C)NC(=O)[C@@H](N)Cc1c[nH]cn1)C(=O)N/C(=C\c1ccccc1)C(=O)O
Relative activity, Kinase Inhibition (CDK2/cyclin A kinase assay, pRb substrate, [ATP] = 100 µM) (CDK2/cyclin A [2]): 3.3 relative to H-His-Ala-Lys-Arg-Arg-Leu-Ile-Phe-NH2 (=1)

H-HAKRRLI[Phe(ol)] [H-His-Ala-Lys-Arg-Arg-Leu-Ile-Pheol]
Relative activity, Kinase Inhibition (CDK2/cyclin A kinase assay, pRb substrate, [ATP] = 100 µM) (CDK2/cyclin A [2]): 0.6 relative to H-His-Ala-Lys-Arg-Arg-Leu-Ile-Phe-NH2 (=1)

Reference: patent publication US20040176301A1 (CYCLACEL, published 2004)
